Data from FireProtDB (doi:10.1110/ps.8.4.832).

Conditions: Aspergillus oryzae (strain ATCC 42149 / RIB 40), Thermal, whole UniProt chain shown
[1] = pH 1.1, DSC, glycine-HCl 0.1 M/0.1 M, NaCl 0.1 M, reversible: yes(77%)
[2] = pH 1.5, DSC, glycine-HCl 0.1 M/0.1 M, NaCl 0.1 M, reversible: yes(99%)
[3] = pH 2, DSC, glycine-HCl 0.1 M/0.1 M, NaCl 0.1 M, reversible: yes(80%)
[4] = pH 3, DSC, glycine-HCl 0.1 M/0.1 M, NaCl 0.1 M, reversible: yes(80%)
[5] = pH 7, DSC, None, reversible: yes(26%)

B1: Guanyl-specific ribonuclease T1 wild type, P00651 (protein)
chain: MMYSKLLTLTTLLLPTALALPSLVERACDYTCGSNCYSSSDVSTAQAAGYQLHEDGETVGSNSYPHKYNNYEGFDFSVSSPYYEWPILSSGDVYSGGSPGADRVVFNENNQLAGVITHTGASGNNFVECT
Tm (pH 1.1, Absorbance, glycine-HCl 0.1 M/0.1 M, NaCl 0.1 M, reversible: yes(77%)): 25.9 °C
Tm [1]: 28.2 °C
unfolding enthalpy (calorimetric) [1]: 43.3 kcal/mol
unfolding enthalpy (van 't Hoff) [1]: 55.7 kcal/mol
Tm [2]: 32.3 °C
unfolding enthalpy (calorimetric) [2]: 47.6 kcal/mol
unfolding enthalpy (van 't Hoff) [2]: 60.5 kcal/mol
Tm (pH 2, Absorbance, glycine-HCl 0.1 M/0.1 M, NaCl 0.1 M, reversible: yes(80%)): 33 °C
Tm [3]: 37 °C
unfolding enthalpy (calorimetric) [3]: 68.9 kcal/mol
unfolding enthalpy (van 't Hoff) [3]: 66.3 kcal/mol
Tm (pH 3, Absorbance, glycine-HCl 0.1 M/0.1 M, NaCl 0.1 M, reversible: yes(80%)): 46.1 °C
Tm [4]: 50.2 °C
unfolding enthalpy (calorimetric) [4]: 95.7 kcal/mol
unfolding enthalpy (van 't Hoff) [4]: 93.1 kcal/mol
Tm (pH 3.5, Absorbance, glycine-HCl 0.1 M/0.1 M, NaCl 0.1 M, reversible: yes(73%)): 52.7 °C
Tm (pH 7, Absorbance, None, reversible: yes(26%)): 62.8 °C
Tm [5]: 64.4 °C
unfolding enthalpy (calorimetric) [5]: 123 kcal/mol
unfolding enthalpy (van 't Hoff) [5]: 116 kcal/mol
